What all share (assay): crystal structure
Assay [1] concerns the target JCPyV Mad-1 VP1 pentamer (wild type, amino acids 22 to 289) (JC polyomavirus (JCPyV), strain Mad-1).
Assay [2] deals with JCPyV Mad-1 VP1 pentamer L54F (amino acids 22 to 289) (JC polyomavirus (JCPyV), strain Mad-1).
Assay [3] has as its target JCPyV Mad-1 VP1 pentamer S268F (amino acids 22 to 289) (JC polyomavirus (JCPyV), strain Mad-1).
The target in assay [4] is JCPyV Mad-1 VP1 pentamer S268Y (amino acids 22 to 289) (JC polyomavirus (JCPyV), strain Mad-1).

As usually defined, the stoichiometry N is a count of units in the complex or per binding partner. Consider “JCPyV Mad-1 VP1 pentamer (wild type, amino acids 22 to 289) (domain or fragment)”, for which the stoichiometry N in assay [1] amounted to 5. As to “JCPyV Mad-1 VP1 pentamer L54F (amino acids 22 to 289) (domain or fragment)”, the stoichiometry N in assay [2] worked out at 5.

Consider “JCPyV Mad-1 VP1 pentamer S268F (amino acids 22 to 289) (domain or fragment)”, for which the stoichiometry N in assay [3] was 5. Take “JCPyV Mad-1 VP1 pentamer S268Y (amino acids 22 to 289) (domain or fragment)”: in assay [4], the stoichiometry N is 5.

(Values after publication PMC3685208.)
